{"source": "patent US20090166224A1", "about": "(published 2009)", "binders": {"B1": {"name": "wheat germ agglutinin (WGA), agarose-bound (other, UniProt P10968 27-197, looked up)", "chain": "QRCGEQGSNMECPNNLCCSQYGYCGMGGDYCGKGCQNGACWTSKRCGSQAGGATCTNNQCCSQYGYCGFGAEYCGAGCQGGPCRADIKCGSQAGGKLCPNNLCCSQWGFCGLGSEFCGGGCQSGACSTDKPCGKDAGGRVCTNNYCCSKWGSCGIGPGYCGAGCQSGGCDG", "modifications": "immobilized on agarose", "notes": "Lectin; released with N-acetyl-glucosamine; Coated on the plate in the lectin ELISA"}}, "test_in_all_cases": "human serum on Con A/WGA/Jacalin column, lectin-specific displacer fraction, LC-MS/MS; grade = SEQUEST rank group (+ = ranks 1-5, ++++ = 16-20)", "key": {"VITRONECTIN": {"target": "T1, VITRONECTIN (human, UniProt P04004 20-478)", "T1 construct": "from human serum; also called VTNC", "T1 sequence (P04004 20-478 limits assumed)": "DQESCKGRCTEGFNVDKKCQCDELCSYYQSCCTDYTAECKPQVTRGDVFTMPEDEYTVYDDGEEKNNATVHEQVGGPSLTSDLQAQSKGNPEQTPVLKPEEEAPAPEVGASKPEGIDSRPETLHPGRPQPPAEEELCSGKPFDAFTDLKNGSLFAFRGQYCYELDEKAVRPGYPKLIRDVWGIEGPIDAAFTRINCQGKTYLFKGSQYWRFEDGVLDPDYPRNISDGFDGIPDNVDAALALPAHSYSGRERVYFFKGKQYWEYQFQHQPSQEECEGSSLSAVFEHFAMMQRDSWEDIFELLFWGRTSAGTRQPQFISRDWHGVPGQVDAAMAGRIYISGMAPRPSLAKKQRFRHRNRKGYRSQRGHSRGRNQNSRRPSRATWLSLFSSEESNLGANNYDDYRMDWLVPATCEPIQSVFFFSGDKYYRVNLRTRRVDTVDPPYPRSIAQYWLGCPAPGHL"}, "[1]": {"target": "T2, IG ALPHA-1 CHAIN C REGION (human, UniProt P01876-1 1-353)", "T2 construct": "domain: C region; Polyclonal serum IgA, identified through its constant region; variable regions and light chains not defined; also called ALC1", "T2 sequence (P01876 other isoform, or with tags, fused parts or gaps limits assumed)": "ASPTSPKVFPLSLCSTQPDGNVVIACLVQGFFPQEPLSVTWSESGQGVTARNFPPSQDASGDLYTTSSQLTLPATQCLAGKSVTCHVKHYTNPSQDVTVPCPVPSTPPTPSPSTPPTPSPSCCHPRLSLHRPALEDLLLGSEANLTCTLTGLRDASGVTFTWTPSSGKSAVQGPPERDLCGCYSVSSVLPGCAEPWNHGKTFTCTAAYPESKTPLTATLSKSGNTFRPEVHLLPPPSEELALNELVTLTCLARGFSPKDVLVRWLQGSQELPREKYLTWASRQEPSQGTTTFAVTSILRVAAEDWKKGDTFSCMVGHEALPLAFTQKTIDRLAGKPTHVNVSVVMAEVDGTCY"}, "[2]": {"target": "T3, PLASMA PROTEASE C1 INHIBITOR (human, UniProt P05155 23-500)", "T3 construct": "from human serum; also called IC1", "T3 sequence (looked up)": "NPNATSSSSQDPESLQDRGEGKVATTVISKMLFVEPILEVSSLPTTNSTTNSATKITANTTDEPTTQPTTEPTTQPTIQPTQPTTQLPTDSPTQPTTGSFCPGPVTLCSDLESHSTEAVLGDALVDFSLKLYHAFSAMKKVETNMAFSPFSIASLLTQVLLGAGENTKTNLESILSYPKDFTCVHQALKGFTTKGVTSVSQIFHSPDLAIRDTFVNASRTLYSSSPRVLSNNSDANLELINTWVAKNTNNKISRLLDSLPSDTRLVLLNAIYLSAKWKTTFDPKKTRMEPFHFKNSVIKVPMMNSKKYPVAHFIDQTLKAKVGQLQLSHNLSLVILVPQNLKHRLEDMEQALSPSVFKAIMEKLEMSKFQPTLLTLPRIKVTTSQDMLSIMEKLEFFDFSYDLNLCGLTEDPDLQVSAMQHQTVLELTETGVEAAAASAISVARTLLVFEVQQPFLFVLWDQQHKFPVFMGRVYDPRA"}, "ALPHA-2-MACROGLOBULIN": {"target": "T4, ALPHA-2-MACROGLOBULIN (human, UniProt P01023 24-1474)", "T4 construct": "also called A2MG; α2-macroglobulin", "T4 sequence (looked up)": "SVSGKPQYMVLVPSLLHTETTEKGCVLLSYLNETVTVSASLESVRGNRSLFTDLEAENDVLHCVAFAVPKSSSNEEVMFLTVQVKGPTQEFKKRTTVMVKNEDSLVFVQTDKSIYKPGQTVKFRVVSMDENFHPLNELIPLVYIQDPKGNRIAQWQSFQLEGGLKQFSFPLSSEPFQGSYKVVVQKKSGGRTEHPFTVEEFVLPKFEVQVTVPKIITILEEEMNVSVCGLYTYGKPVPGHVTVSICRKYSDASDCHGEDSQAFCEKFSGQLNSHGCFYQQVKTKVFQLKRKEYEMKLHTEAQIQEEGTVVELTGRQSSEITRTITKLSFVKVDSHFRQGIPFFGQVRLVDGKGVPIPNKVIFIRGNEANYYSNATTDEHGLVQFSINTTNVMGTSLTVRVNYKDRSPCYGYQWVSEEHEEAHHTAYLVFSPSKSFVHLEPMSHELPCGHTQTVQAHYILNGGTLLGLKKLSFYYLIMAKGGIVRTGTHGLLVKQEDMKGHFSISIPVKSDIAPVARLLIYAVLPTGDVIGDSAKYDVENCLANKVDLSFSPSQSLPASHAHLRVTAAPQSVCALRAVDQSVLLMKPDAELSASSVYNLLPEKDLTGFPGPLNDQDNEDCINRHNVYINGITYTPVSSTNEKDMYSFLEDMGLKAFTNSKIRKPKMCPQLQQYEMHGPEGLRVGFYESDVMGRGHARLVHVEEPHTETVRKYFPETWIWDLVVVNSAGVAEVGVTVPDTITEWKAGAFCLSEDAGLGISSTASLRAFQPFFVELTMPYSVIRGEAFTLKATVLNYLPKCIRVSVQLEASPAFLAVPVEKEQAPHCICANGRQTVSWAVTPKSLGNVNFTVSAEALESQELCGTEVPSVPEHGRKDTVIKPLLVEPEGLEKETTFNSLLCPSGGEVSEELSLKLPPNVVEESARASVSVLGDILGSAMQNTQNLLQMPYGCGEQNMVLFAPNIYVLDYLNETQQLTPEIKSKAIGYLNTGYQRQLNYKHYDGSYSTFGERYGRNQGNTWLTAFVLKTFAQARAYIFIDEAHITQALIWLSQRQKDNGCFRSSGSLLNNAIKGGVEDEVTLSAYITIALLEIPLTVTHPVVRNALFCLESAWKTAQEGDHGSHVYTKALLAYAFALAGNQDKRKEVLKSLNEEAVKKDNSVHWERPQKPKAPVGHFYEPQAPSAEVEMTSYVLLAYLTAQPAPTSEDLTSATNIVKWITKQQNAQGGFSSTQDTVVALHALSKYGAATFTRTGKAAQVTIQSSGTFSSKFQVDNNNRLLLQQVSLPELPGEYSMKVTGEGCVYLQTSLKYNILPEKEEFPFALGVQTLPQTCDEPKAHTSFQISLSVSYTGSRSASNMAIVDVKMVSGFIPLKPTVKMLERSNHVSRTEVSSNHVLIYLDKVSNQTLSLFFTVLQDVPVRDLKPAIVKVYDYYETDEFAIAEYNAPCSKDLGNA"}}}
{"binder": "B1", "values": [{"measurement": "SEQUEST ranking (relative abundance in the WGA displacement fraction)", "setting": "VITRONECTIN", "result": "6 to 10", "unit": "rank"}, {"measurement": "SEQUEST ranking (relative abundance in the WGA displacement fraction)", "setting": "[1]", "result": "1 to 5", "unit": "rank"}, {"measurement": "SEQUEST ranking (relative abundance in the WGA displacement fraction)", "setting": "[2]", "result": "16 to 20", "unit": "rank"}, {"measurement": "SEQUEST ranking (relative abundance in the WGA displacement fraction)", "setting": "ALPHA-2-MACROGLOBULIN", "result": "1 to 5", "unit": "rank"}]}
